Measurements as given in the supplement of paper PMC9112550, “Optimization of the antimicrobial peptide Bac7 by deep mutational scanning” (BMC Biology, 2022).

Tested on: Escherichia coli TOP10
Experiment: shrunken log2 fold change of peptide-encoding DNA abundance (4.5 h post-induction vs induction); higher = less antimicrobial activity (less host growth inhibition)
Settings: time post-induction: 4.5 h; library: site-saturation at positions 5, 18, 19, 20
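Note: peptides expressed intracellularly from a pBAD plasmid library in pooled LB shake-flask culture, induced with 0.3% L-arabinose, DNA abundance read by NGS, three biological replicates, DESeq2 with apeglm shrinkage.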

Sequence | shrunken log2 fold change
RRIRIRPPRLPRPRPRPCCSPRP | -1.1
RRIRERPPRLPRPRPRPFCPPRP | -0.149
RRIRWRPPRLPRPRPRPPWTPRP | 0.688
RRIRQRPPRLPRPRPRPVCHPRP | -0.13
RRIRDRPPRLPRPRPRPSVSPRP | 0.0104
RRIRYRPPRLPRPRPRPDWYPRP | -0.968
RRIRKRPPRLPRPRPRPDNNPRP | 0.0165
RRIRGRPPRLPRPRPRPSDEPRP | 0.178
RRIRDRPPRLPRPRPRPFEPPRP | -0.057
RRIRGRPPRLPRPRPRPRGIPRP | 1.23
RRIRVRPPRLPRPRPRPECSPRP | -0.091
RRIRQRPPRLPRPRPRPQWGPRP | -0.161
RRIRSRPPRLPRPRPRPQPHPRP | 0.17
RRIRVRPPRLPRPRPRPRFTPRP | -0.0651
RRIRDRPPRLPRPRPRPSYMPRP | -0.111
RRIRVRPPRLPRPRPRPIWMPRP | -0.0796
RRIRARPPRLPRPRPRPDHVPRP | 0.0166
RRIRARPPRLPRPRPRPWPYPRP | -0.144
RRIRCRPPRLPRPRPRPIDHPRP | -1.01
RRIRHRPPRLPRPRPRPEDEPRP | 0.0969
RRIRIRPPRLPRPRPRPNTGPRP | -0.663
RRIRHRPPRLPRPRPRPMITPRP | -0.658
RRIRDRPPRLPRPRPRPTHWPRP | 0.192
RRIRARPPRLPRPRPRPGGSPRP | 0.535
RRIRMRPPRLPRPRPRPNNFPRP | -0.169

Sequence | shrunken log2 fold change
RRIRDRPPRLPRPRPRPSHPPRP | -0.425
RRIRYRPPRLPRPRPRPINRPRP | -0.018
RRIRNRPPRLPRPRPRPAHEPRP | -0.0423
RRIRLRPPRLPRPRPRPPCVPRP | -0.0544
RRIRKRPPRLPRPRPRPQGIPRP | 0.114
RRIRHRPPRLPRPRPRPQYKPRP | -0.252
RRIRWRPPRLPRPRPRPNKFPRP | -0.369
RRIRVRPPRLPRPRPRPAYKPRP | -0.181
RRIRSRPPRLPRPRPRPGAEPRP | 0.606
RRIRYRPPRLPRPRPRPAWMPRP | -0.0583
RRIRIRPPRLPRPRPRPTPYPRP | -0.44
RRIRCRPPRLPRPRPRPVNMPRP | -0.179
RRIRIRPPRLPRPRPRPRMAPRP | 0.0331
RRIRNRPPRLPRPRPRPLNKPRP | -0.256
RRIRQRPPRLPRPRPRPKAHPRP | 0.0165
RRIRLRPPRLPRPRPRPFRPPRP | 0.0752
RRIRFRPPRLPRPRPRPCMDPRP | -0.336
RRIRIRPPRLPRPRPRPCYMPRP | -0.49
RRIRLRPPRLPRPRPRPHTAPRP | -0.00187
RRIRKRPPRLPRPRPRPSGCPRP | -0.00526
RRIRNRPPRLPRPRPRPERRPRP | 0.237
RRIRERPPRLPRPRPRPTRVPRP | -0.0943
RRIRQRPPRLPRPRPRPNLQPRP | 0.0864
RRIRLRPPRLPRPRPRPDVVPRP | 0.0387
RRIRIRPPRLPRPRPRPLEHPRP | -0.105

Sequence | shrunken log2 fold change
RRIRQRPPRLPRPRPRPPQFPRP | 0.076
RRIRVRPPRLPRPRPRPNRCPRP | -0.364
RRIRKRPPRLPRPRPRPIFWPRP | 0.313
RRIRLRPPRLPRPRPRPVWEPRP | 0.0556
RRIRHRPPRLPRPRPRPIQFPRP | -0.482
RRIRLRPPRLPRPRPRPMECPRP | -0.489
RRIRPRPPRLPRPRPRPMMIPRP | 0.0824
RRIRTRPPRLPRPRPRPQTFPRP | -0.567
RRIRYRPPRLPRPRPRPQWKPRP | -0.01
RRIRCRPPRLPRPRPRPDSNPRP | -0.488
RRIRIRPPRLPRPRPRPFKCPRP | 0.000802
RRIRIRPPRLPRPRPRPHLHPRP | -0.784
RRIRARPPRLPRPRPRPTFEPRP | 0.42
RRIRHRPPRLPRPRPRPKCWPRP | 0.123
RRIRDRPPRLPRPRPRPVAMPRP | 0.633
RRIRMRPPRLPRPRPRPRSIPRP | 0.667
RRIRSRPPRLPRPRPRPIFGPRP | 0.0746
RRIRWRPPRLPRPRPRPHPAPRP | 0.35
RRIRNRPPRLPRPRPRPQHDPRP | -0.25
RRIRARPPRLPRPRPRPVTDPRP | -0.0398
RRIRSRPPRLPRPRPRPSERPRP | 0.245
RRIRKRPPRLPRPRPRPVQFPRP | -0.0421
RRIRDRPPRLPRPRPRPRMEPRP | -0.239
RRIRDRPPRLPRPRPRPMQHPRP | -0.00754
RRIRHRPPRLPRPRPRPQTYPRP | -0.193

Sequence | shrunken log2 fold change
RRIRERPPRLPRPRPRPVGWPRP | 0.888
RRIRMRPPRLPRPRPRPEWEPRP | -0.00306
RRIRLRPPRLPRPRPRPQQFPRP | -0.0691
RRIRRRPPRLPRPRPRPMKFPRP | 0.212
RRIRPRPPRLPRPRPRPIFNPRP | -0.238
RRIRGRPPRLPRPRPRPPKSPRP | 0.616
RRIRPRPPRLPRPRPRPNDFPRP | -0.438
RRIRPRPPRLPRPRPRPLDYPRP | -0.495
RRIRARPPRLPRPRPRPQQRPRP | 0.199
RRIRLRPPRLPRPRPRPKIIPRP | -0.69
RRIRQRPPRLPRPRPRPDTPPRP | -0.039
RRIRNRPPRLPRPRPRPIMMPRP | -0.103
RRIRERPPRLPRPRPRPHCLPRP | -0.138
RRIRYRPPRLPRPRPRPVDAPRP | -0.42
RRIRKRPPRLPRPRPRPMTRPRP | 0.872
RRIRPRPPRLPRPRPRPGPLPRP | 0.193
RRIRYRPPRLPRPRPRPMISPRP | -0.126
RRIRQRPPRLPRPRPRPNLMPRP | -0.196
RRIRQRPPRLPRPRPRPDFQPRP | -0.0253
RRIRGRPPRLPRPRPRPNPWPRP | 0.454
RRIRVRPPRLPRPRPRPQWTPRP | -0.17
RRIRLRPPRLPRPRPRPNLEPRP | 0.0534
RRIRCRPPRLPRPRPRPMLAPRP | 0.379
RRIRWRPPRLPRPRPRPQIYPRP | -0.000758
RRIRGRPPRLPRPRPRPCYDPRP | 0.156

Sequence | shrunken log2 fold change
RRIRPRPPRLPRPRPRPWIWPRP | -0.186
RRIRKRPPRLPRPRPRPQHMPRP | 0.0396
RRIRIRPPRLPRPRPRPGESPRP | -0.0125
RRIRFRPPRLPRPRPRPAVYPRP | -0.35
RRIRGRPPRLPRPRPRPMPYPRP | 0.0877
RRIRQRPPRLPRPRPRPIDIPRP | 0.107
RRIRRRPPRLPRPRPRPVQKPRP | 0.223
RRIRKRPPRLPRPRPRPWRAPRP | 0.5
RRIRMRPPRLPRPRPRPPGHPRP | 1.03
RRIRHRPPRLPRPRPRPWSVPRP | -0.125
RRIRARPPRLPRPRPRPELEPRP | 1.88
RRIRHRPPRLPRPRPRPNNAPRP | -0.11
RRIRWRPPRLPRPRPRPVDLPRP | -0.107
RRIRVRPPRLPRPRPRPLRKPRP | 0.317
RRIRRRPPRLPRPRPRPDEGPRP | -0.00319
RRIRERPPRLPRPRPRPQMCPRP | 0.0746
RRIRNRPPRLPRPRPRPQIGPRP | 0.0326
RRIRERPPRLPRPRPRPIMHPRP | -0.462
RRIRYRPPRLPRPRPRPGTGPRP | 0.147
RRIRRRPPRLPRPRPRPYYWPRP | -0.0449
RRIRKRPPRLPRPRPRPPFFPRP | 0.476
RRIRNRPPRLPRPRPRPLFHPRP | -0.595
RRIRCRPPRLPRPRPRPSGFPRP | -0.218
RRIRQRPPRLPRPRPRPCPAPRP | -0.00924
RRIRQRPPRLPRPRPRPQEFPRP | -0.0104

Sequence | shrunken log2 fold change
RRIRVRPPRLPRPRPRPWICPRP | -0.358
RRIRMRPPRLPRPRPRPMWSPRP | -0.027
RRIRMRPPRLPRPRPRPRQPPRP | 0.805
RRIRARPPRLPRPRPRPRMDPRP | 0.356
RRIRMRPPRLPRPRPRPQPRPRP | 1.22
RRIRSRPPRLPRPRPRPFSEPRP | 0.00901
RRIRLRPPRLPRPRPRPKRNPRP | 0.225
RRIRYRPPRLPRPRPRPKMYPRP | -1.46
RRIRLRPPRLPRPRPRPETMPRP | 0.0125
RRIRCRPPRLPRPRPRPDYLPRP | 0.0148
RRIRYRPPRLPRPRPRPLFKPRP | -0.646
RRIRARPPRLPRPRPRPIWWPRP | -0.00662
RRIRHRPPRLPRPRPRPGGMPRP | 0.274
RRIRARPPRLPRPRPRPDANPRP | 0.275
RRIRGRPPRLPRPRPRPQHEPRP | 0.0159
RRIRHRPPRLPRPRPRPCWGPRP | -0.137
RRIRMRPPRLPRPRPRPEINPRP | 2.85
RRIRVRPPRLPRPRPRPRYCPRP | -0.144
RRIRVRPPRLPRPRPRPLFLPRP | -0.417
RRIRERPPRLPRPRPRPQMNPRP | -0.276
RRIRARPPRLPRPRPRPCKGPRP | -0.0784
RRIRIRPPRLPRPRPRPSQMPRP | -0.0716
RRIRMRPPRLPRPRPRPLLNPRP | 0.366
RRIRRRPPRLPRPRPRPKEGPRP | -0.000243
RRIRWRPPRLPRPRPRPYSTPRP | -0.225
